{
  "source": "paper PMC3305458",
  "about": "“E2F1 Mediated Apoptosis Induced by the DNA Damage Response Is Blocked by EBV Nuclear Antigen 3C in Lymphoblastoid Cells” (PLoS Pathogens, 2012)",
  "target": "flag-tagged wild-type E2F1 (residues 1–437) (UniProt Q01094 1-437)",
  "sequence (Q01094 whole entry, the tested form may be a part)": "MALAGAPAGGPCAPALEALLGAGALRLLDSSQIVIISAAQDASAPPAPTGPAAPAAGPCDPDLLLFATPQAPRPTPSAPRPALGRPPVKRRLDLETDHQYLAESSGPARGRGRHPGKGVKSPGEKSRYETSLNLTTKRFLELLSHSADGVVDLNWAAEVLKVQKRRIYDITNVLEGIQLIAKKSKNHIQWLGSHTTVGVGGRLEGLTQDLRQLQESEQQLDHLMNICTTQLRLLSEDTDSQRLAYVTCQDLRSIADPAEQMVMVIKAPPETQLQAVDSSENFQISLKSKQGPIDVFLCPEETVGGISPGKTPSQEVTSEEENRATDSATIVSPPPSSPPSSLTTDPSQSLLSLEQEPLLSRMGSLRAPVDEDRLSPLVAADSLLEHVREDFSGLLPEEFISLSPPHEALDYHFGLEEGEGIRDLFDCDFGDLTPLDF",
  "assay": "cell-based or functional assay",
  "data": [
    {"binder": "myc-tagged EBNA3C (residues 1–992) (natural protein) MESFEGQGDSRQSPDNERGDNVQTTGEHDQDPGPGPPSSGASERLVPEESYSRDQQPWGQSRGDENRGWMQRIRRRRRRRAALSGHLLDTEDNVPPWLPPHDITPYTARNIRDAACRAVKQSHLQALSNLILDSGLDTQHILCFVMAARQRLQDIRRGPLVAEGGVGWRHWLLTSPSQSWPMGYRTATLRTLTPVPNRVGADSIMLTATFGCQNAARTLNTFSATVWTPPHAGPREQERYAREAEVRFLRGKWQRRYRRIYDLIELCGSLHHIWQNLLQTEENLLDFVRFMGVMSSCNNPAVNYWFHKTIGNFKPYYPWNAPPNENPYHARRGIKEHVIQNAFRKAQIQGLSMLATGGEPRGDATSETSSDEDTGRQGSDVELESSDDELPYIDPNMEPVQQRPVMFVSRVPAKKPRKLPWPTPKTHPVKRTNVKTSDRSDKAEAQSTPERPGPSEQSSVTVEPAHPTPVEMPMVILHQPPPVPKPVPVKPTPPPSRRRRGACVVYDDDVIEVIDVETTEDSSSVSQPNKPHRKHQDGFQRSGRRQKRAAPPTVSPSDTGPPAVGPPAAGPPAAGPPAAGPPAAGPPAAGPPAAGPRILAPLSAGPPAAGPHIVTPPSARPRIMAPPVVRMFMRERQLPQSTGRKPQCFWEMRAGREITQMQQEPSSHLQSATQPTTPRPSWAPSVCALSVMDAGKAQPIESSHLSSMSPTQPISHEEQPRYEDPDAPLDLSLHPDVAAQPAPQAPYQGYQEPPAPQAPYQGYQEPPPPQAPYQGYQEPPAHGLQSSSYPGYAGPWTPRSQHPCYRHPWAPWSQDPVHGHTQGPWDPRAPHLPPQWDGSAGHGQDQVSQFPHLQSETGPPRLQLSLVPLVSSSAPSWSSPQPRAPIRPIPTRFPPPPMPLQDSMAVGCDSSGTACPSMPFASDYSQGAFTPLDINATTPKRPRVEESSHGPARCSQATAEAQEILSDNSEISVFPKDAKQTDYDASTESELD", "values": [
      {"measurement": "proliferation of G418-selected Saos-2 cells after serum starvation and 5 µM etoposide, counted for 6 days: E2F1 plus EBNA3C against E2F1 alone or E2F1 plus EBNA3C residues 366-620", "value": "~4", "unit": "fold"}
    ]}
  ]
}
